Data: patent US20220402985A1
Values joined by “and” are separate entries in the source; they are usually repeats but may differ in a detail not shown here. Equal values may be shown once.

Columns and labels:
[1] = target: ErbB3 on rat Schwann cells (rat) (UniProt Q62799); test: cell-based or functional assay
[2] = target: ErbB4 on neonatal rat cardiomyocytes (rat) (UniProt Q62956); test: cell-based or functional assay
ErbB4 on neonatal rat cardiomyocytes (rat), sequence (Q62956 26-1308): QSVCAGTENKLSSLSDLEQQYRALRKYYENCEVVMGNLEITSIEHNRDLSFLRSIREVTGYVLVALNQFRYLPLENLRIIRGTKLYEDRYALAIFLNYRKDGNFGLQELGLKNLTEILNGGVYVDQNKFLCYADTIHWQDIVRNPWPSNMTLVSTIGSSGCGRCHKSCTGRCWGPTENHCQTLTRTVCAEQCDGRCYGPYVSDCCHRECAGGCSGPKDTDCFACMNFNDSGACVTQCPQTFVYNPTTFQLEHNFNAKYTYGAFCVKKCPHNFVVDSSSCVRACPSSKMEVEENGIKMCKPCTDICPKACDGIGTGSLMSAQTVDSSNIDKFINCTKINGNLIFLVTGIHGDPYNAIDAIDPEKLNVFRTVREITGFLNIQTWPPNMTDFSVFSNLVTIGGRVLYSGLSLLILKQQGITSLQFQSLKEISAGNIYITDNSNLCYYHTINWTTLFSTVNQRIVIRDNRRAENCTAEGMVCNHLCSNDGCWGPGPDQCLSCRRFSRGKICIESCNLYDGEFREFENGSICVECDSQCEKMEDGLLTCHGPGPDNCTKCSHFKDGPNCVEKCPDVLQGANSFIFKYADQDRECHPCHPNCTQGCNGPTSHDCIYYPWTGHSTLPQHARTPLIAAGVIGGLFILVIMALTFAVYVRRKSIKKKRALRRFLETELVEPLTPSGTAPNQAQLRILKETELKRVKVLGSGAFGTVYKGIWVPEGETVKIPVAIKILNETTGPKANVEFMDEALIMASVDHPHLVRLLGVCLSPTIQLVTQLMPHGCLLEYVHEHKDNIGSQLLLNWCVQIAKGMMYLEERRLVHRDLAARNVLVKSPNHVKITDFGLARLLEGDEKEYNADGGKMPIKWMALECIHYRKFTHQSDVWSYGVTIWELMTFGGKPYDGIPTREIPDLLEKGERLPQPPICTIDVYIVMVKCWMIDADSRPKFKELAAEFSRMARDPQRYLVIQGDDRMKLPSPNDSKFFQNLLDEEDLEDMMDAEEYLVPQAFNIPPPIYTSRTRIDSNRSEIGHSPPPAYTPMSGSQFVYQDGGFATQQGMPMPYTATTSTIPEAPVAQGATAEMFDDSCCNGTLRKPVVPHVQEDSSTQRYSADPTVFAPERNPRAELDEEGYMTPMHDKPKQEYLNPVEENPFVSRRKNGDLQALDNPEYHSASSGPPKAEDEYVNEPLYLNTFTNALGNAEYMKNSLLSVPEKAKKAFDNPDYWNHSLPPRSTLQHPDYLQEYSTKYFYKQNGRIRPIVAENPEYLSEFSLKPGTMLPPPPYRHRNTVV

ErbB3 on rat Schwann cells (rat), sequence (Q62799 20-1339): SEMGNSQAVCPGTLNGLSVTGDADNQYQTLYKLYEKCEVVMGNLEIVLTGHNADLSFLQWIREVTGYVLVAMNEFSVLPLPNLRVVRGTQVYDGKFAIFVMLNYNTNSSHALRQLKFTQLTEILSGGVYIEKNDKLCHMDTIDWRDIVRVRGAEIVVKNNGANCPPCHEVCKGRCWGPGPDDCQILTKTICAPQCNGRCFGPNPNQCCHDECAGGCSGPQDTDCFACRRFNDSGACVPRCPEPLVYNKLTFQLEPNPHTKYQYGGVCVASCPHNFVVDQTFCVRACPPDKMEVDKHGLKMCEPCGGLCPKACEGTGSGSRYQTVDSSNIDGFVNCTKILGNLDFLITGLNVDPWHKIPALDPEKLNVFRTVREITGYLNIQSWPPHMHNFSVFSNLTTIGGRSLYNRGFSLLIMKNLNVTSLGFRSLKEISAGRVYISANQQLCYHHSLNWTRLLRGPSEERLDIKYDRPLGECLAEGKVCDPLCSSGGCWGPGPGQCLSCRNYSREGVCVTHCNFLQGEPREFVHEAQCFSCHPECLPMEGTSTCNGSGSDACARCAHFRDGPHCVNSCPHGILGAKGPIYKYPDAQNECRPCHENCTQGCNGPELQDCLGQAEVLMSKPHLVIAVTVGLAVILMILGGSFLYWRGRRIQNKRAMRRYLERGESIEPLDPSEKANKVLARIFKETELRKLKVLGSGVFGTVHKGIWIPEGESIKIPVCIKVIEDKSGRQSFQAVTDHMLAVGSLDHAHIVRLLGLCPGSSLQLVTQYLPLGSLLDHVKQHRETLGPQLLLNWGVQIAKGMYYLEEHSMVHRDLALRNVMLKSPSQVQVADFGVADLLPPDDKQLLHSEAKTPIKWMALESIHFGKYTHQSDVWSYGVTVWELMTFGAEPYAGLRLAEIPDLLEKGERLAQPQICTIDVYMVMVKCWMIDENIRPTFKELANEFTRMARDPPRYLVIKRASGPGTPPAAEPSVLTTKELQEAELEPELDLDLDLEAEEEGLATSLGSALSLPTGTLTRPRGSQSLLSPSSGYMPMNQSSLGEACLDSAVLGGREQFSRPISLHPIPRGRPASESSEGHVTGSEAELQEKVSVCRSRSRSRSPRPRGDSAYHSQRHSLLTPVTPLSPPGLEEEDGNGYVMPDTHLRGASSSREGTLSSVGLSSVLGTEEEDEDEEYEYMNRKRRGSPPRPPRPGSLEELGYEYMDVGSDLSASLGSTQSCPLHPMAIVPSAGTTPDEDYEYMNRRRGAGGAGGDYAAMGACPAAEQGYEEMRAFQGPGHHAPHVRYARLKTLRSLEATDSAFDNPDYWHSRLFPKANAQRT

| Binder | Schwann cells (SC) (ErbB3) Avg EC50 [1] | CM % Agonism AVG [2] | Cardiomyocyte (CM) (ErbB4) Avg EC50 [2] | Selectivity SC/CM [2] |
| --- | --- | --- | --- | --- |
| huNRG1(S177-Q237)(3D8)::GG::huFcSEFL2 (Pb) (Fc fusion) SHLVKCGEKDKTFCVNGGECFMVEDLSIPSRFLCKCPNEFTGDRCQDFFMASFYKAEELYQGGDKTHTCPPCPAPELLGGPSVFLFPPKPKDTLMISRTPEVTCVVVDVSHEDPEVKFNWYVDGVEVHNAKTKPCEEQYGSTYRCVSVLTVLHQDWLNGKEYKCKVSNKALPAPIEKTISKAKGQPREPQVYTLPPSREEMTKNQVSLTCLVKGFYPSDIAVEWESNGQPENNYKTTPPVLDSDGSFFLYSKLTVDKSRWQQGNVFSCSVMHEALHNHYTQKSLSLSPGK | > 3000 nM | < 50% | 0.51 nM | > 5800 |
| huNRG1(S177-Q237)(3G3)::GG::huFcSEFL2 (Pb) (Fc fusion) SHLVKCGEREKTFCVNGGECFMIEHLSIPSRFLCKCPNEFTGDRCQEDFMASFYKAEELYQGGDKTHTCPPCPAPELLGGPSVFLFPPKPKDTLMISRTPEVTCVVVDVSHEDPEVKFNWYVDGVEVHNAKTKPCEEQYGSTYRCVSVLTVLHQDWLNGKEYKCKVSNKALPAPIEKTISKAKGQPREPQVYTLPPSREEMTKNQVSLTCLVKGFYPSDIAVEWESNGQPENNYKTTPPVLDSDGSFFLYSKLTVDKSRWQQGNVFSCSVMHEALHNHYTQKSLSLSPGK | > 10000 nM | 70% | 1.84 nM | > 5400 |
| huNRG1(S177-Q237)(3H5)::GG::huFcSEFL2 (Pb) (Fc fusion) SHLVKCGERHKSFCVNGGECYVVERPSIPSRFLCKCPNEFTGDRCQKDFLASFYKAEELYQGGDKTHTCPPCPAPELLGGPSVFLFPPKPKDTLMISRTPEVTCVVVDVSHEDPEVKFNWYVDGVEVHNAKTKPCEEQYGSTYRCVSVLTVLHQDWLNGKEYKCKVSNKALPAPIEKTISKAKGQPREPQVYTLPPSREEMTKNQVSLTCLVKGFYPSDIAVEWESNGQPENNYKTTPPVLDSDGSFFLYSKLTVDKSRWQQGNVFSCSVMHEALHNHYTQKSLSLSPGK | > 10000 nM |  | 1.27 nM | > 7800 |
| huNRG1(S177-Q237)(3E6)::GG::huFcSEFL2 (Pb) (Fc fusion) SHLVKCAEKHKSFCVNGGECYVIEGSSIPSRFLCKCPNEFTGDRCQKDFMASFYKAEELYQGGDKTHTCPPCPAPELLGGPSVFLFPPKPKDTLMISRTPEVTCVVVDVSHEDPEVKFNWYVDGVEVHNAKTKPCEEQYGSTYRCVSVLTVLHQDWLNGKEYKCKVSNKALPAPIEKTISKAKGQPREPQVYTLPPSREEMTKNQVSLTCLVKGFYPSDIAVEWESNGQPENNYKTTPPVLDSDGSFFLYSKLTVDKSRWQQGNVFSCSVMHEALHNHYTQKSLSLSPGK | > 10000 nM |  | 0.35 nM | > 10000 |
| huNRG1(S177-Q237)(3F2)::GG::huFcSEFL2 (Pb) (Fc fusion) SHLVKCGESHKSFCVNGGECFMIEGPSNPSRYLCKCPNEFTGDRCQDDFMASFYKAEELYQGGDKTHTCPPCPAPELLGGPSVFLFPPKPKDTLMISRTPEVTCVVVDVSHEDPEVKFNWYVDGVEVHNAKTKPCEEQYGSTYRCVSVLTVLHQDWLNGKEYKCKVSNKALPAPIEKTISKAKGQPREPQVYTLPPSREEMTKNQVSLTCLVKGFYPSDIAVEWESNGQPENNYKTTPPVLDSDGSFFLYSKLTVDKSRWQQGNVFSCSVMHEALHNHYTQKSLSLSPGK | > 10000 nM | 70% | 0.738 nM | > 10000 |
| huNRG1(S177-Q237)(3G9)::GG::huFcSEFL2 (Pb) (Fc fusion) SHLVKCGESHKSFCVNGGECFMVEDLSNPSRFLCKCPNEFTGDRCQKDFMASFYKAEELYQGGDKTHTCPPCPAPELLGGPSVFLFPPKPKDTLMISRTPEVTCVVVDVSHEDPEVKFNWYVDGVEVHNAKTKPCEEQYGSTYRCVSVLTVLHQDWLNGKEYKCKVSNKALPAPIEKTISKAKGQPREPQVYTLPPSREEMTKNQVSLTCLVKGFYPSDIAVEWESNGQPENNYKTTPPVLDSDGSFFLYSKLTVDKSRWQQGNVFSCSVMHEALHNHYTQKSLSLSPGK | > 10000 nM |  | 0.581 nM | > 10000 |
| huNRG1(S177-Q237)(3E9)::GG::huFcSEFL2 (Pb) (Fc fusion) SHLVKCAENHKTFCVNGGECFVIEGSSNPSRYLCKCPNEFTGDRCQDVFLASFYKAEELYQGGDKTHTCPPCPAPELLGGPSVFLFPPKPKDTLMISRTPEVTCVVVDVSHEDPEVKFNWYVDGVEVHNAKTKPCEEQYGSTYRCVSVLTVLHQDWLNGKEYKCKVSNKALPAPIEKTISKAKGQPREPQVYTLPPSREEMTKNQVSLTCLVKGFYPSDIAVEWESNGQPENNYKTTPPVLDSDGSFFLYSKLTVDKSRWQQGNVFSCSVMHEALHNHYTQKSLSLSPGK | > 3000 nM | 70% | 2.68 nM | > 8500 |
| huNRG1(S177-F229)(NRGE1C)::1KmodT482V, M493L)::huFcSEFL2 (Pb) (Fc fusion) SHLVKCGEKHKSFCVNGGECFMIEGPSNPSRYLCKCPNEFTGDRCQEDFMASFGSGSATGGSGSVASSGSGSATHLDKTHTCPPCPAPELLGGPSVFLFPPKPKDTLMISRTPEVTCVVVDVSHEDPEVKFNWYVDGVEVHNAKTKPCEEQYGSTYRCVSVLTVLHQDWLNGKEYKCKVSNKALPAPIEKTISKAKGQPREPQVYTLPPSREEMTKNQVSLTCLVKGFYPSDIAVEWESNGQPENNYKTTPPVLDSDGSFFLYSKLTVDKSRWQQGNVFSCSVMHEALHNHYTQKSLSLSPGK | > 10000 nM | 75.8% | 0.4 nM | > 10000 |

Other lines, results leading:

| Schwann cells (SC) (ErbB3) Avg EC50 [1] | CM % Agonism AVG [2] | Cardiomyocyte (CM) (ErbB4) Avg EC50 [2] | Selectivity SC/CM [2] | Binder |
| --- | --- | --- | --- | --- |
| 121 nM |  | 2 nM | 60 | huNRG1(S177-Q237)()200E_KDF)::GG::huFcSEFL2 (Pb) (Fc fusion) SHLVKCAEKEKTFCVNGGECFMVEDLSNPSRYLCKCPNEFTGDRCQKDFMASFYKAEELYQGGDKTHTCPPCPAPELLGGPSVFLFPPKPKDTLMISRTPEVTCVVVDVSHEDPEVKFNWYVDGVEVHNAKTKPCEEQYGSTYRCVSVLTVLHQDWLNGKEYKCKVSNKALPAPIEKTISKAKGQPREPQVYTLPPSREEMTKNQVSLTCLVKGFYPSDIAVEWESNGQPENNYKTTPPVLDSDGSFFLYSKLTVDKSRWQQGNVFSCSVMHEALHNHYTQKSLSLSPGK |
| 4.82 nM |  | 0.452 nM | 11 | huNRG1(S177-Q237)(_200E)::GG::huFcSEFL2 (Pb) (Fc fusion) SHLVKCAEKEKTFCVNGGECFMVEDLSNPSRYLCKCPNEFTGDRCQNYVMASFYKAEELYQGGDKTHTCPPCPAPELLGGPSVFLFPPKPKDTLMISRTPEVTCVVVDVSHEDPEVKFNWYVDGVEVHNAKTKPCEEQYGSTYRCVSVLTVLHQDWLNGKEYKCKVSNKALPAPIEKTISKAKGQPREPQVYTLPPSREEMTKNQVSLTCLVKGFYPSDIAVEWESNGQPENNYKTTPPVLDSDGSFFLYSKLTVDKSRWQQGNVFSCSVMHEALHNHYTQKSLSLSPGK |
| 0.112 nM and 0.15 nM |  | 0.275 nM and 0.6 nM | 0.4 and 0.3 | huNRG1(S177-Q237)(wt)::GG::huFcSEFL2 (Pb) (Fc fusion) SHLVKCAEKEKTFCVNGGECFMVKDLSNPSRYLCKCPNEFTGDRCQNYVMASFYKAEELYQGGDKTHTCPPCPAPELLGGPSVFLFPPKPKDTLMISRTPEVTCVVVDVSHEDPEVKFNWYVDGVEVHNAKTKPCEEQYGSTYRCVSVLTVLHQDWLNGKEYKCKVSNKALPAPIEKTISKAKGQPREPQVYTLPPSREEMTKNQVSLTCLVKGFYPSDIAVEWESNGQPENNYKTTPPVLDSDGSFFLYSKLTVDKSRWQQGNVFSCSVMHEALHNHYTQKSLSLSPGK |
| 4.27 nM |  | 0.177 nM | 24 | huNRG1(S177-Q237)(_FVIEDPSI)::GG::huFcSEFL2 (Pb) (Fc fusion) SHLVKCAEKEKTFCVNGGECFVIEDPSIPSRYLCKCPNEFTGDRCQNYVMASFYKAEELYQGGDKTHTCPPCPAPELLGGPSVFLFPPKPKDTLMISRTPEVTCVVVDVSHEDPEVKFNWYVDGVEVHNAKTKPCEEQYGSTYRCVSVLTVLHQDWLNGKEYKCKVSNKALPAPIEKTISKAKGQPREPQVYTLPPSREEMTKNQVSLTCLVKGFYPSDIAVEWESNGQPENNYKTTPPVLDSDGSFFLYSKLTVDKSRWQQGNVFSCSVMHEALHNHYTQKSLSLSPGK |
| > 10000 nM |  | 0.276 nM | > 10000 | huNRG1(S177-Q237)(3H8)::GG::huFcSEFL2 (Pb) (Fc fusion) SHLVKCGEKHKSFCVNGGECYMVEGSSIPSRYLCKCPNEFTGDRCQEDFMASFYKAEELYQGGDKTHTCPPCPAPELLGGPSVFLFPPKPKDTLMISRTPEVTCVVVDVSHEDPEVKFNWYVDGVEVHNAKTKPCEEQYGSTYRCVSVLTVLHQDWLNGKEYKCKVSNKALPAPIEKTISKAKGQPREPQVYTLPPSREEMTKNQVSLTCLVKGFYPSDIAVEWESNGQPENNYKTTPPVLDSDGSFFLYSKLTVDKSRWQQGNVFSCSVMHEALHNHYTQKSLSLSPGK |
| 6.65 nM |  | 0.998 nM | 7 | huNRG1(S177-Q237)(v80)::GG::huFcSEFL2 (Pb) (Fc fusion) SHLVKCAESHKSFCVNGGECFVIEGSSIPSRYLCKCPNEFTGDRCQKDVMASFYKAEELYQGGDKTHTCPPCPAPELLGGPSVFLFPPKPKDTLMISRTPEVTCVVVDVSHEDPEVKFNWYVDGVEVHNAKTKPCEEQYGSTYRCVSVLTVLHQDWLNGKEYKCKVSNKALPAPIEKTISKAKGQPREPQVYTLPPSREEMTKNQVSLTCLVKGFYPSDIAVEWESNGQPENNYKTTPPVLDSDGSFFLYSKLTVDKSRWQQGNVFSCSVMHEALHNHYTQKSLSLSPGK |
| 3000 nM |  | 33.6 nM | 89 | huNRG1(S177-Q237)(v80.3)::GG::huFcSEFL2 (Pb) (Fc fusion) SHLVKCAERHKSFCVNGGECFVIEGSSIPSRYLCKCPNEFTGDRCEKDVMASFYKAEELYQGGDKTHTCPPCPAPELLGGPSVFLFPPKPKDTLMISRTPEVTCVVVDVSHEDPEVKFNWYVDGVEVHNAKTKPCEEQYGSTYRCVSVLTVLHQDWLNGKEYKCKVSNKALPAPIEKTISKAKGQPREPQVYTLPPSREEMTKNQVSLTCLVKGFYPSDIAVEWESNGQPENNYKTTPPVLDSDGSFFLYSKLTVDKSRWQQGNVFSCSVMHEALHNHYTQKSLSLSPGK |
